One test has as its target T1, Human Siglec-3 (human, UniProt P20138 18-364).
T1 construct: CHO HuSiglec-3 cell line; also called HuSiglec-3; CD33
Nature of the test: flow cytometry on CHO HuSiglec-3 cell line. As for the experimental part:
(§1) Cells expressing Siglec-3, -5, -6, -8, -10, -11 and -12 were generated and a representative subset of the cross-reactive Siglec-7/9 antibodies were tested by flow cytometry for binding to the cells. Amino acid sequences and Genbank references for Siglec polypeptides used are shown below in Table 1.
(§2) Briefly, HuSiglec-expressing CHO cell lines (that expressed one of the Siglecs) were used.

A further test addresses T2, Human Siglec-8 (human, UniProt Q9NYZ4 17-499).
T2 construct: CHO HuSiglec-8 cell line; also called HuSiglec-8
In words: flow cytometry on CHO HuSiglec-8 cell line. As for the experimental part: as §1, §2
A general note: Flow cytometry measures light scatter and fluorescence of single cells or particles in a stream.

The target in another test is T3, Human Siglec-6 (human, UniProt O43699 27-453).
T3 construct: CHO HuSiglec-6 cell line; also called HuSiglec-6
T3 sequence (O43699 other isoform, or with tags, fused parts or gaps): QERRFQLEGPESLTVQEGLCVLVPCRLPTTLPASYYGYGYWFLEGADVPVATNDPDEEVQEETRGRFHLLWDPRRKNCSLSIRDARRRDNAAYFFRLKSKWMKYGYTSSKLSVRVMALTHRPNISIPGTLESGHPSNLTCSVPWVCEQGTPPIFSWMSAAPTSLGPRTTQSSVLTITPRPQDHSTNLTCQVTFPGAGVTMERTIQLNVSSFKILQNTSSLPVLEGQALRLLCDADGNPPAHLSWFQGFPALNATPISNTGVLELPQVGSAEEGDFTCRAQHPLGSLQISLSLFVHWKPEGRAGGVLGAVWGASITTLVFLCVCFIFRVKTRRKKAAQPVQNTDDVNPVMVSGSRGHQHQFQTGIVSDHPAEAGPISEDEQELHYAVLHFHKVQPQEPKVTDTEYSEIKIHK
Nature of the test: flow cytometry on CHO HuSiglec-6 cell line. The protocol:
as §1, §2

The target in another test is T4, Human Siglec-12 (human, UniProt Q96PQ1 19-595).
T4 construct: CHO HuSiglec-12 cell line; also called HuSiglec-12
T4 sequence (Q96PQ1 19-595): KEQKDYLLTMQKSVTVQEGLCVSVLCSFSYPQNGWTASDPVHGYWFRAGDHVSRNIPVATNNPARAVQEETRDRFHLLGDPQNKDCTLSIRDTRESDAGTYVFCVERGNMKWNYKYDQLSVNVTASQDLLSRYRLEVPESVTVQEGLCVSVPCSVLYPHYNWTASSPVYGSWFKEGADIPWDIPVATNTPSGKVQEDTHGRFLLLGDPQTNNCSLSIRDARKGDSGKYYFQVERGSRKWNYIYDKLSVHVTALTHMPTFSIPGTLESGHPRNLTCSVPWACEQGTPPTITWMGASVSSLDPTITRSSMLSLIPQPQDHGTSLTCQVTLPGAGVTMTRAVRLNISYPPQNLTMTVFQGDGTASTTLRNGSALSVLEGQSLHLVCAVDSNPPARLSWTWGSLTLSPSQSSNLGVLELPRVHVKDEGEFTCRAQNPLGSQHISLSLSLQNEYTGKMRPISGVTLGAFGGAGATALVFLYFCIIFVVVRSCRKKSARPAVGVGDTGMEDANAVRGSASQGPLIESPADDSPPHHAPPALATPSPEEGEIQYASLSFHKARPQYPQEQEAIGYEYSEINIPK
Nature of the test: flow cytometry on CHO HuSiglec-12 cell line. As for the experimental part:
as §1, §2

The target in another test is T5, Human Siglec-7 (human, UniProt Q9Y286 19-467).
T5 construct: Expressed on CHO cells (huSiglec-7-expressing CHO cell line); also called huSiglec-7; CD328
T5 sequence (Q9Y286 19-467): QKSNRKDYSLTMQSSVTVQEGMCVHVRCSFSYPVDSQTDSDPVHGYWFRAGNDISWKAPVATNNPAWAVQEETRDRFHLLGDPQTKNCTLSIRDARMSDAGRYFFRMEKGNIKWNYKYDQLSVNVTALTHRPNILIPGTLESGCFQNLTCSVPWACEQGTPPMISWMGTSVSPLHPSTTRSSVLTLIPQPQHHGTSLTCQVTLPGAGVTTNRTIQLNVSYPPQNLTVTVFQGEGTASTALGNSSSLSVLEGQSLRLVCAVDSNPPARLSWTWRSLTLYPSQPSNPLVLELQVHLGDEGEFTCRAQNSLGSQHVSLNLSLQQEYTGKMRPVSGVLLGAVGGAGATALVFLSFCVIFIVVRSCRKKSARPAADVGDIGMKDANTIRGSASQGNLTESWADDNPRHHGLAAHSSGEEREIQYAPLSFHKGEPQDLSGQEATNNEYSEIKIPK
Nature of the test: flow cytometry on Siglec-7-expressing cell line.

The target of the next test is T6, Human Siglec-5 (human, UniProt O15389 17-551).
T6 construct: CHO HuSiglec-5 cell line; also called HuSiglec-5
T6 sequence: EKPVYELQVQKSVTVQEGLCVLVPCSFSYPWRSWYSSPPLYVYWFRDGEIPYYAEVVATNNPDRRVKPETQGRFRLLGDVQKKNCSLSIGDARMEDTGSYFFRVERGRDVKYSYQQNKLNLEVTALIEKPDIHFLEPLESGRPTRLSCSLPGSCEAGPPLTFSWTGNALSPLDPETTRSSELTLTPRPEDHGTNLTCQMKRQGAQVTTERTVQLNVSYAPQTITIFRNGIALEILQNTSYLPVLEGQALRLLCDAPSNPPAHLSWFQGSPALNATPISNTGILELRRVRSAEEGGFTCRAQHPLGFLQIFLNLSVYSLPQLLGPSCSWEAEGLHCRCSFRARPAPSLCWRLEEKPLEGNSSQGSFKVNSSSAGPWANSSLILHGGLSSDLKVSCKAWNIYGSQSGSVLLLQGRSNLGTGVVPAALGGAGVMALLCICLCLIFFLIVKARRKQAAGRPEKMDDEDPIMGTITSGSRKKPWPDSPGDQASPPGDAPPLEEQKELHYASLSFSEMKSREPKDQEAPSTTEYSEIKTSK
In words: flow cytometry on CHO HuSiglec-5 cell line. The protocol: as §1, §2

A further test addresses T7, Human Siglec-10 (human, UniProt Q96LC7 17-697).
T7 construct: CHO HuSiglec-10 cell line; also called HuSiglec-10
T7 sequence: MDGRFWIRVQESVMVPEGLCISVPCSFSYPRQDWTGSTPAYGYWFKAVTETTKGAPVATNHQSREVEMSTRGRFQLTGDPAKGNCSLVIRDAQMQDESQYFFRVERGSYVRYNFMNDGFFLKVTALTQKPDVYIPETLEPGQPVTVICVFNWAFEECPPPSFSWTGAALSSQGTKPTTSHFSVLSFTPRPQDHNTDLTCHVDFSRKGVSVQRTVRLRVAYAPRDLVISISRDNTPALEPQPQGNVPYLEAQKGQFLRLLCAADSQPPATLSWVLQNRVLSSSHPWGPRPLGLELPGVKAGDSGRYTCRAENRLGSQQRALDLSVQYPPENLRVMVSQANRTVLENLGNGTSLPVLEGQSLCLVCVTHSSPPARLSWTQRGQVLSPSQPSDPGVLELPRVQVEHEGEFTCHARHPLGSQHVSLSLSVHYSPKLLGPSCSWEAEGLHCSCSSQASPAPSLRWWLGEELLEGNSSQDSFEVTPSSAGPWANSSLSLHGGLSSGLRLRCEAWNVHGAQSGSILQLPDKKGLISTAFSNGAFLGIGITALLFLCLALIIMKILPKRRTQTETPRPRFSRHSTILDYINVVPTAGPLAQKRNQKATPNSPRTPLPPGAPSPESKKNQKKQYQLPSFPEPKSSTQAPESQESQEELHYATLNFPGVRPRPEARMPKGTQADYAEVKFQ
Nature of the test: flow cytometry on CHO HuSiglec-10 cell line. The protocol: as §1, §2

The next test addresses T8, Human Siglec-11 (human, UniProt Q96RL6 29-698).
T8 construct: CHO HuSiglec-11 cell line; also called HuSiglec-11
T8 sequence: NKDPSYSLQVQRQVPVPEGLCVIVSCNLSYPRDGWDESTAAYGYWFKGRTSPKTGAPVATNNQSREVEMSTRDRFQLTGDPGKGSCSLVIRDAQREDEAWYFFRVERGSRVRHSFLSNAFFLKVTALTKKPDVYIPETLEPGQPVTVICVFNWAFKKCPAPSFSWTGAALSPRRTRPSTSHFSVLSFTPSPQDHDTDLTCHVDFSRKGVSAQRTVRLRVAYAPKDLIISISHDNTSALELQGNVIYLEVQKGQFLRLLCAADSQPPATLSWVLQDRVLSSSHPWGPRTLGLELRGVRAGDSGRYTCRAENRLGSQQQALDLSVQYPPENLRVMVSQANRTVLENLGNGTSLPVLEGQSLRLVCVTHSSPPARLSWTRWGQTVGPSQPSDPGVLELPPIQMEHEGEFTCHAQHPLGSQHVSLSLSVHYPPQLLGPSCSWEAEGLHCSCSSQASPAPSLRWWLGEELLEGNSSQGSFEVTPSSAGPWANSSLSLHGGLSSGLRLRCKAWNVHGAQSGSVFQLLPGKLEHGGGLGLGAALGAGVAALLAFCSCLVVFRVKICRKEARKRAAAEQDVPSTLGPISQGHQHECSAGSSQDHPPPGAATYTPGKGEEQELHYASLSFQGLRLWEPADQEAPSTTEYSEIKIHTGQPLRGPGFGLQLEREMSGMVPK
Nature of the test: flow cytometry on CHO HuSiglec-11 cell line. The protocol: as §1, §2

The target in the next test is T9, Human Siglec-9 (human, UniProt Q9Y336 18-463).
T9 construct: Expressed on CHO cells (huSiglec-9-expressing CHO cell line); also called huSiglec-9; CD329
T9 sequence (Q9Y336 18-463): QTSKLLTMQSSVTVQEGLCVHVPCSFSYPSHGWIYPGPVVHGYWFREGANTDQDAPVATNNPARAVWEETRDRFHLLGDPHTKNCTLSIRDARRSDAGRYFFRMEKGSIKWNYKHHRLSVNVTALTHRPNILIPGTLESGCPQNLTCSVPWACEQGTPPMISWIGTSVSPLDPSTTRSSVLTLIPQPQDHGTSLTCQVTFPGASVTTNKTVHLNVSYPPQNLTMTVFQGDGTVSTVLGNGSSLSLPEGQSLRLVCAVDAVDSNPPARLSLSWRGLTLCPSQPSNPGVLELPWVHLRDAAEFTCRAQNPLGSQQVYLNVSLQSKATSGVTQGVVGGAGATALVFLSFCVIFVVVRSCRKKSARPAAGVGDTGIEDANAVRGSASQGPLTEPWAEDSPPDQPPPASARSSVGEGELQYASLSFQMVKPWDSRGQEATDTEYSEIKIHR
In words: flow cytometry on Siglec-9-expressing cell line.

T1 sequence (P20138 18-364 R69G): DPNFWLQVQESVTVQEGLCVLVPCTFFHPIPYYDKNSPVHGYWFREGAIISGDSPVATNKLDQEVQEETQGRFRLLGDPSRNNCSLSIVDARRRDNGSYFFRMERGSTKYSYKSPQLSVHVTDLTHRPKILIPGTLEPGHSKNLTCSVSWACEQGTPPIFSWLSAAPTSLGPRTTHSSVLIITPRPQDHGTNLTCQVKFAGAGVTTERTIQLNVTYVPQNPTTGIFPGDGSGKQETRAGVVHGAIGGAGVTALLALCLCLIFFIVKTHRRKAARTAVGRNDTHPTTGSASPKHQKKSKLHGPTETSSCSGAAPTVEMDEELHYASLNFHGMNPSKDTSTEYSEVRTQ
T2 sequence (Q9NYZ4 17-499): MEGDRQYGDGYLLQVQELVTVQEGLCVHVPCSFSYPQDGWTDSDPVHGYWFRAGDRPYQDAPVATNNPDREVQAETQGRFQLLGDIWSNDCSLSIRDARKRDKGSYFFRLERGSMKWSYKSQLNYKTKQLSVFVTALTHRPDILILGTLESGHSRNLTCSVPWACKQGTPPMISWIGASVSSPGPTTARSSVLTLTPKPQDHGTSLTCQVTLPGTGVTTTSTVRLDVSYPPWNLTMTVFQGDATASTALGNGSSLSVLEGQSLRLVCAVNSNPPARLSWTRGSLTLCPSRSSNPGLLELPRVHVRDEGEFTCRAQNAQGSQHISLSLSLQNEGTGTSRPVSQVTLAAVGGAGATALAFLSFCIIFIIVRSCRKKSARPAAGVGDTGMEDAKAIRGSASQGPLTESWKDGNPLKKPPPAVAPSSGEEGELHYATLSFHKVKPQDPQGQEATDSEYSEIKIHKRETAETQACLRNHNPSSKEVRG

B1: antibody 3A11 (antibody, V domains shown)
VH: EVQLQQSGTVLARPGASVKMSCKASGYSFTSYWMHWVKQRPGQGLEWIGAIYPGNSDTSYNQKFKDKAKLTAVTSASTAYMELSSLTNEDSAVYYCTTYYRYDGGFDYWGQGTTLTVSS
VL: DIQMTQSPKSMSMSVGERVTLSCKASETVGTYVSWYQQKPEQSPKLLIFGASNRNTGVPDRFTGSGSATDFTLTISSVQAEDLADYHCGQSYNYPYTFGGGTKLEIK
notes: Raised in Balb/c mice; hybridoma supernatants were screened with goat anti-mouse detection, and selected antibodies were also made as chimeric human IgG1 (also with N297Q); also called mAb 3A11
As for B1, the binding result with Human Siglec-3 is given as “no binding”; with Human Siglec-8, “no binding”; with Human Siglec-6, “no binding”; with Human Siglec-12, “no binding”; with Human Siglec-7, “binds”; with Human Siglec-5, “no binding”. Also, the binding result with Human Siglec-10 is “no binding”; in the test with Human Siglec-11, “no binding”; in the test with Human Siglec-9, “binds”.

B2: antibody 2B4 (antibody, V domains shown)
VH: EVQLQQSGTVLARPGASVKMSCKASGYSFTNYWMHWVKQRPGQGLEWIGAIYPGNSDTSYIQKFKGKAKLTAVTSASTAYMELSSLTNEDSAVYYCTTYYRYDGGFDYWGQGTTLTVSS
VL: DIVMTQSPKSMSMSVGERVTLSCKASENVDTYVSWYQQKPDQSPKLLLYGASNRNTGVPDRFTGSGSATDFTLTISNVQAEDLADYHCGQSYSQPYTFGGGTKLEIK
notes: Mouse-derived; also called mAb 2B4
For B2, the binding result was “no binding” with Human Siglec-3; “no binding” with Human Siglec-8; “no binding” with Human Siglec-6; “no binding” with Human Siglec-12; “binds” in the test with Human Siglec-7; “no binding” with Human Siglec-5. Moreover, the binding result in the test with Human Siglec-10 is reported as “no binding”; in the test with Human Siglec-11, “no binding”; with Human Siglec-9, “binds”.

B3: antibody 1H9 (antibody, V domains shown)
VH: QVQLQQSGAELVRPGASVKLSCKAMGNTFTDYEMHWVKQTPVHGLEWIGAIHPGSGGTVYNQKFRGKAALTADKSSSTAYMELSSLTSEDSAVYYCTREVSGTVYWGQGTTLTVSS
VL: DIVMTQAAFSNPVTLGTSASISCRSSKSLLHSNGITYLFWYLQKPGQSPQLLIYQMSNLASGVPDRFSSSGSGTDFTLRISRVEAEDVGVYYCAQNLELPWTFGGGTKLEIK
notes: Mouse-derived; also called mAb 1H9
B3: the binding result with Human Siglec-3 is “no binding”; in the test with Human Siglec-8, “no binding”; with Human Siglec-6 it was “no binding”; in the test with Human Siglec-12, “no binding”; with Human Siglec-7, “binds”; with Human Siglec-5, “no binding”. For the same molecule, the binding result in the test with Human Siglec-10 was “no binding”; in the test with Human Siglec-11, “no binding”; with Human Siglec-9, “binds”.
